Among the data in publication PMC4815329, “Biochemical and Molecular Characterization of a Flavonoid 3-O-glycosyltransferase Responsible for Anthocyanins and Flavonols Biosynthesis in Freesia hybrida” (Frontiers in Plant Science, 2016) are Km, kcat and kcat/Km values, retold here.

Substrate in data set [1]: O=c1c(O)c(-c2ccc(O)c(O)c2)oc2cc(O)cc(O)c12
As to the kind of experiment: HPLC of glucoside product, initial rates, Lineweaver-Burk. The format is biochemical, Freesia hybrid cultivar. Particulars: apparent Km, 10 mM UDP-glucose, 100 mM potassium phosphate pH 8.0, 30°C, 2 min.

Substrate in data set [2]: Oc1cc(O)c2cc(O)c(-c3cc(O)c(O)c(O)c3)[o+]c2c1
The description is as above. It counts as biochemical, Freesia hybrid cultivar. Particulars: apparent Km, 10 mM UDP-glucose, 100 mM potassium phosphate pH 8.0, 30°C, 2 min.

B1: Fh3GT1 (Freesia hybrid cultivar) (protein)
chain: MGSADRSHVALLAFPFGTHAAPLLSLGLNLASSAPHGTTFSFLSNRRPVSLPPNSAIKFYEIADGSDPEHEGHVHPEEEVRVFMEETPGNYKKALEAAVDRCGGQRVTCIVADAFLWFVGDIAAEFGVHWVPLWTGGPCSFLAHLYTDMLRNKIGTGKEADPDEDLQFLPGLSGFRVRDLPDDIVTGDLTGAFASLLHRMSIEIPRSAAAIAINTFEGLHPDIDADLASKFKKSLPIGPLNLLNPTLNQPDRFSCLAWLDKFEPHSVAYVSFGTLAALTEAELVELASGLEQSGVPFLWSLKEPGQLPAGFLDRTKDRGLVVPWVPQAEALKHVAVGASLSHCGWNSVMESVTSGVPMLCRPFLGDQTMNARAVSHVWKVGVTFENGTMTRANVAEAMKKVVVGEEGRKMRERAAAIREMAAGSVRPGGSSVQNFKALLDIVIAR
notes: full-length ORF, pET-28a(+), N-terminal His tag, E. coli BL21(DE3), Ni Sepharose purified; cDNA described in Sui et al. 2011; Asn-244 (NPTL) and Asn-386 (NGTM)
In general, Km refers to the concentration of substrate that gives half-maximal velocity. By kcat is commonly meant the number of substrate molecules converted per active site and unit of time at saturation. By kcat/Km is commonly meant the second-order rate constant that governs catalysis at low substrate concentration. For the protein B1, in data set [1], the Km came to 98.47 ± 4.96 µM, the kcat stood at 4.59 ± 0.035 s⁻¹ and the kcat/Km is 48500 M⁻¹ s⁻¹. For the same protein, in data set [2], the Km is 58.88 ± 1.68 µM, the kcat worked out at 0.53 ± 0.01 s⁻¹ and the kcat/Km was determined as 9060 M⁻¹ s⁻¹.
